This note sets out measurements from US8153424B2, “Method of in vitro differentiation of neural stem cells, motor neurons and dopamine neurons from primate embryonic stem cells” (Wisconsin Alumni Research Foundation, priority 2001, dated 2012).

The test system of the assay is hESC-derived neuroectodermal cells. The assay can be described thus: Midbrain regionalization and DA neuron differentiation, immunocytochemistry and cell counting. To be noted: FGF8 100 ng/ml applied at day nine for six days, expanded in FGF8 four days, then SHH six days. Format: cell-based, human. The procedure: Differentiation and enrichment of neuroectodermal cells. hESC colonies were detached from MEF layer by the treatment of the culture with 0.2 mg/ml of dispase (Roche Diagnostics) and grown as floating cell aggregates (embryoid body) for four days with a daily change of ESC medium. They were then grown in an adherent substrate in a neural medium consisting of DMEM/F12 (2:1), supplemented with N2 (Gibco), 0.1 mM non-essential amino acids, 2 μg/ml heparin with a medium change every other day. The ESC aggregates attached and formed individual colonies at around day six. […] The neural rosettes were isolated through differential enzymatic response (Zhang et al., supra, 2001). Growth factors were added during the course of differentiation to influence regionalization (see results).
DA neuron differentiation. The enriched neuroectodermal cells were dissociated by 0.025% trypsin and 0.27 mM EDTA in PBS at 37° C. for 10-15 minutes and plated onto 12-mm coverslips (pre-coated with 100 μg/ml polyornithine and 10 μg/ml laminin) at a density of 40,000-50,000 cells/coverslip. […]
Immunocytochemistry and cell quantification. […] Staining was visualized with a Nikon fluorescence microscope. […] The cells in ten visual fields were randomly selected and counted from each coverslip.

B1: FGF8: fibroblast growth factor 8 (protein, UniProt P55075 23-233, looked up)
Fibroblast growth factor 8: QEGPGRGPALGRELASLFRAGREPQGVSQQHVREQSLVTDQLSRRLIRTYQLYSRTSGKHVQVLANKRINAMAEDGDPFAKLIVETDTFGSRVRVRGAETGLYICMNKKGKLIAKSNGKGKDCVFTEIVLENNYTALQNAKYEGWYMAFTRKGRPRKGSKTRQHQREVHFMKRLPRGHHTTEQSLRFEFLNYPPFTRSLRGSQRTWAPEPR
For the molecule B1, the “En-1 expression in nestin-expressing neuroectodermal cells” value is given as “En-1 expression was observed”.
